Results published in the Immune Epitope Database (IEDB).

Key:
HLA-B*58:01 [1] = assay: IEDB peptide-MHC binding, purified MHC/competitive/fluorescence; filed as Kd, often an IC50 or EC50 that approximates it; ≥ and ≤ were set here for values at or beyond the usual limits of such assays
HLA-B*15:01 [2] = assay: as above
HLA-B*35:01 = assay: as above
HLA-B*27:03 = assay: as above; details: source organism: Zaire ebolavirus
HLA-A*26:01 [3] = assay: as above
HLA-A*02:01 [4] = assay: as above; details: source organism: Zaire ebolavirus
HLA-B*46:01 [5] = assay: as above; details: source organism: Zaire ebolavirus
HLA-B*39:01 = assay: as above; details: source organism: Zaire ebolavirus
HLA-A*69:01 [6] = assay: as above; details: source organism: Zaire ebolavirus
HLA-B*51:01 = assay: as above
HLA-B*18:01 [7] = assay: as above
HLA-A*02:19 = assay: IEDB peptide-MHC binding, purified MHC/direct/fluorescence; filed as Kd, often an IC50 or EC50 that approximates it; ≥ and ≤ were set here for values at or beyond the usual limits of such assays; details: source organism: Zaire ebolavirus
HLA-A*68:02 [8] = assay: as above; details: source organism: Zaire ebolavirus
HLA-A*02:11 = assay: as above; details: source organism: Zaire ebolavirus
HLA-A*02:03 = assay: as above; details: source organism: Zaire ebolavirus
HLA-A*02:16 = assay: as above; details: source organism: Zaire ebolavirus
HLA-A*03:01 [9] = assay: as above
HLA-A*02:12 = assay: as above; details: source organism: Zaire ebolavirus
HLA-A*03:01 [10] = assay: IEDB peptide-MHC binding, purified MHC/competitive/fluorescence; filed as Kd, often an IC50 or EC50 that approximates it; ≥ and ≤ were set here for values at or beyond the usual limits of such assays
HLA-B*15:01 [11] = assay: IEDB peptide-MHC binding, purified MHC/direct/fluorescence; filed as Kd, often an IC50 or EC50 that approximates it; ≥ and ≤ were set here for values at or beyond the usual limits of such assays
HLA-A*68:02 [12] = assay: IEDB peptide-MHC binding, purified MHC/competitive/fluorescence; filed as Kd, often an IC50 or EC50 that approximates it; ≥ and ≤ were set here for values at or beyond the usual limits of such assays; details: source organism: Vaccinia virus WR
HLA-A*31:01 [13] = assay: as above; details: source organism: Vaccinia virus WR
HLA-A*02:06 = assay: as above; details: source organism: Vaccinia virus WR
HLA-B*15:17 = assay: as above; details: source organism: Vaccinia virus WR
HLA-B*48:01 = assay: IEDB peptide-MHC binding, purified MHC/direct/fluorescence; filed as Kd, often an IC50 or EC50 that approximates it; ≥ and ≤ were set here for values at or beyond the usual limits of such assays; details: source organism: Camelpox virus M-96
HLA-B*57:01 = assay: as above; details: source organism: Camelpox virus M-96
HLA-B*07:02 = assay: as above
HLA-A*02:01 [14] = assay: as above
HLA-B*58:01 [15] = assay: as above
HLA-B*46:01 [16] = assay: as above
HLA-A*01:01 [17] = assay: as above
HLA-B*40:01 = assay: as above
HLA-A*69:01 [18] = assay: as above
HLA-A*11:01 = assay: as above
HLA-B*27:05 = assay: as above
HLA-B*18:01 [19] = assay: as above
HLA-B*08:01 = assay: IEDB peptide-MHC binding, purified MHC/competitive/fluorescence; filed as Kd, often an IC50 or EC50 that approximates it; ≥ and ≤ were set here for values at or beyond the usual limits of such assays
HLA-A*24:02 = assay: IEDB peptide-MHC binding, purified MHC/direct/fluorescence; filed as Kd, often an IC50 or EC50 that approximates it; ≥ and ≤ were set here for values at or beyond the usual limits of such assays; details: source organism: Vibrio parahaemolyticus
HLA-A*31:01 [20] = assay: as above
HLA-B*08:02 = assay: as above; details: source organism: Vibrio parahaemolyticus RIMD 2210633
HLA-A*26:01 [21] = assay: as above
HLA-B*44:02 = assay: as above; details: source organism: Vibrio parahaemolyticus
HLA-A*30:01 = assay: IEDB peptide-MHC binding, purified MHC/competitive/fluorescence; filed as Kd, often an IC50 or EC50 that approximates it; ≥ and ≤ were set here for values at or beyond the usual limits of such assays; details: source organism: Vaccinia virus WR
HLA-A*01:01 [22] = assay: as above; details: source organism: Salmonella enterica subsp. enterica serovar Typhi
[23] = source organism: Bacillus anthracis str. A2012
[24] = source organism: Zaire ebolavirus
[25] = source organism: Shigella flexneri 5 str. 8401
[26] = source organism: Yersinia pestis Nepal516
[27] = source organism: Camelpox virus M-96
[28] = source organism: Vibrio parahaemolyticus
[29] = source organism: Vaccinia virus WR
[30] = source organism: Salmonella enterica subsp. enterica serovar Typhi
[31] = source organism: Yersinia pestis Antiqua

VSFLISWSL gave a Kd (HLA-B*58:01 [1]; [23]) of 2.61 µM.
MGMNAYFAY was tested, and the Kd (HLA-B*15:01 [2]; [23]) was 0.0612 µM and the Kd (HLA-B*35:01; [23]) was no more than 0.0001 µM.
Work on VLMKQIPIW yielded a Kd (HLA-B*27:03) of no less than 20 µM, a Kd (HLA-B*15:01 [2]; [24]) of no less than 20 µM and a Kd (HLA-A*26:01 [3]; [24]) of no less than 20 µM. It also gave a Kd (HLA-A*02:01 [4]) of no less than 20 µM, a Kd (HLA-B*58:01 [1]; [24]) of 0.0013 µM and a Kd (HLA-B*46:01 [5]) of no less than 20 µM. The Kd (HLA-B*39:01) was no less than 20 µM, the Kd (HLA-A*69:01 [6]) was no less than 20 µM and the Kd (HLA-B*51:01; [24]) was no less than 20 µM. For the same sequence, the Kd (HLA-B*18:01 [7]; [24]) was no less than 20 µM, the Kd (HLA-A*02:19) was no less than 20 µM and the Kd (HLA-A*68:02 [8]) was no less than 20 µM. It also gave a Kd (HLA-A*02:11) of no less than 20 µM, a Kd (HLA-A*02:03) of no less than 20 µM and a Kd (HLA-A*02:16) of no less than 20 µM. For the same sequence, the Kd (HLA-A*03:01 [9]; [24]) was no less than 20 µM and the Kd (HLA-A*02:12) was no less than 20 µM.
For MFAAGLILY, the Kd (HLA-B*15:01 [2]; [25]) was no less than 20 µM, the Kd (HLA-A*03:01 [10]; [25]) was no less than 20 µM and the Kd (HLA-B*35:01; [25]) was 1.06 µM.
In the case of LMLADHPEY, the Kd (HLA-B*35:01; source organism: Mycobacterium tuberculosis C) is reported as 0.0186 µM and the Kd (HLA-B*15:01 [11]; source organism: Mycobacterium tuberculosis) is reported as 0.313 µM.
VVNDFTVSY showed a Kd (HLA-A*26:01 [3]; [26]) of 0.225 µM, a Kd (HLA-A*03:01 [10]; [26]) of 0.122 µM and a Kd (HLA-B*35:01; [26]) of 0.0035 µM.
With LTFLHTLYK the Kd (HLA-A*68:02 [12]) was 1.09 µM, the Kd (HLA-A*31:01 [13]) was 0.224 µM and the Kd (HLA-A*02:06) was 1.09 µM. It also gave a Kd (HLA-B*15:17) of 0.226 µM, a Kd (HLA-B*48:01) of no less than 20 µM and a Kd (HLA-B*57:01) of no less than 20 µM. It also gave a Kd (HLA-B*15:01 [11]; [27]) of no less than 20 µM, a Kd (HLA-B*07:02; [27]) of no less than 20 µM and a Kd (HLA-A*02:01 [14]; [27]) of no less than 20 µM. It also gave a Kd (HLA-B*58:01 [15]; [27]) of no less than 20 µM, a Kd (HLA-B*46:01 [16]; [27]) of no less than 20 µM and a Kd (HLA-A*01:01 [17]; [27]) of no less than 20 µM. The Kd (HLA-B*40:01; [27]) was no less than 20 µM, the Kd (HLA-A*69:01 [18]; [27]) was no less than 20 µM and the Kd (HLA-A*11:01; [27]) was 0.104 µM. For the same sequence, the Kd (HLA-A*03:01 [9]; [27]) was 0.16 µM, the Kd (HLA-B*27:05; [27]) was no less than 20 µM and the Kd (HLA-B*18:01 [19]; [27]) was no less than 20 µM.
ALSMGINTV gave a Kd (HLA-B*08:01; source organism: Vibrio parahaemolyticus K5030) of no less than 20 µM, a Kd (HLA-A*24:02) of no less than 20 µM and a Kd (HLA-A*31:01 [20]; [28]) of no less than 20 µM. It also gave a Kd (HLA-B*15:01 [11]; [28]) of no less than 20 µM, a Kd (HLA-B*07:02; [28]) of no less than 20 µM and a Kd (HLA-B*08:02) of no less than 20 µM. For the same sequence, the Kd (HLA-A*26:01 [21]; source organism: Vibrio parahaemolyticus RIMD 2210633) was no less than 20 µM, the Kd (HLA-A*02:01 [14]; [28]) was 0.0356 µM and the Kd (HLA-B*58:01 [15]; [28]) was no less than 20 µM. The Kd (HLA-B*46:01 [16]; [28]) was no less than 20 µM, the Kd (HLA-A*01:01 [17]; [28]) was no less than 20 µM and the Kd (HLA-B*44:02) was no less than 20 µM. It also gave a Kd (HLA-B*40:01; [28]) of no less than 20 µM, a Kd (HLA-A*69:01 [18]; [28]) of 2 µM and a Kd (HLA-A*11:01; [28]) of no less than 20 µM. The Kd (HLA-A*03:01 [9]; [28]) was no less than 20 µM, the Kd (HLA-B*27:05; [28]) was no less than 20 µM and the Kd (HLA-B*18:01 [19]; [28]) was no less than 20 µM.
With FVHTLLKTY the Kd (HLA-B*15:01 [2]; [29]) was 0.308 µM, the Kd (HLA-A*02:06) was 2.97 µM and the Kd (HLA-B*15:17) was 0.0554 µM. The Kd (HLA-A*30:01) was no less than 20 µM, the Kd (HLA-B*18:01 [7]; [29]) was no less than 20 µM and the Kd (HLA-A*31:01 [20]; [27]) was no less than 20 µM. It also gave a Kd (HLA-B*48:01) of no less than 20 µM, a Kd (HLA-B*57:01) of no less than 20 µM and a Kd (HLA-A*26:01 [21]; [27]) of 0.0733 µM. It also gave a Kd (HLA-A*02:01 [14]; [27]) of no less than 20 µM, a Kd (HLA-B*58:01 [15]; [27]) of no less than 20 µM and a Kd (HLA-A*01:01 [17]; [27]) of no less than 20 µM. It also gave a Kd (HLA-B*40:01; [27]) of no less than 20 µM, a Kd (HLA-A*69:01 [18]; [27]) of no less than 20 µM and a Kd (HLA-A*11:01; [27]) of no less than 20 µM. For the same sequence, the Kd (HLA-A*03:01 [9]; [27]) was no less than 20 µM and the Kd (HLA-B*27:05; [27]) was no less than 20 µM.
For VTIGNAYIY, the Kd (HLA-A*26:01 [3]; [30]) was 1.05 µM, the Kd (HLA-B*58:01 [1]; [30]) was 0.0625 µM and the Kd (HLA-A*01:01 [22]) was 3.5 µM. The Kd (HLA-A*03:01 [10]; [30]) was no less than 20 µM.
Work on EAKLFFQVI yielded a Kd (HLA-B*08:01; [31]) of 0.755 µM and a Kd (HLA-B*51:01; [31]) of 0.726 µM.
